Results from PMC314469, “Protein Interaction Networks by Proteome Peptide Scanning” (PLoS Biology, 2004).

Columns and labels:
[1] = molecular target: endophilin SH3 (SH3G2_HUMAN), Q99962; assay: SPOT array
[2] = molecular target: T1, amphyphisin SH3 (AMPH_HUMAN), P49418; assay: SPOT array
T1 chain: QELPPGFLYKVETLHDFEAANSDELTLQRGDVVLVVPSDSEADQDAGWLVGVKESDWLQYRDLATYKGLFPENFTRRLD

AWVSPRRPDEEQRP [Q96MG2 305-318]
normalised SPOT signal, Boehringer light units (BLU); mean over the file's lines of this peptide [1]: 398 | normalised SPOT signal, Boehringer light units (BLU); mean over the file's lines of this peptide [2]: 57.9

SFSELVRPFKSNKS [O00529 218-231]
normalised SPOT signal, Boehringer light units (BLU); mean over the file's lines of this peptide [1]: 106 | normalised SPOT signal, Boehringer light units (BLU); mean over the file's lines of this peptide [2]: 32.8

SEDPLKRPVVYVKG [Q9ULT6 127-140]
normalised SPOT signal, Boehringer light units (BLU); mean over the file's lines of this peptide [1]: 58.8 | normalised SPOT signal, Boehringer light units (BLU); mean over the file's lines of this peptide [2]: 21.3

AWQQLRRPEASETL [Q9BTX9 18-31]
normalised SPOT signal, Boehringer light units (BLU); mean over the file's lines of this peptide [1]: 15.9 | normalised SPOT signal, Boehringer light units (BLU); mean over the file's lines of this peptide [2]: 29.3

SGGRLKRPVNVPFD [P22459 237-250]
normalised SPOT signal, Boehringer light units (BLU); mean over the file's lines of this peptide [1]: 37.8 | normalised SPOT signal, Boehringer light units (BLU); mean over the file's lines of this peptide [2]: 11.4

SFLSLRRPWNWIAH [O15229 449-462]
normalised SPOT signal, Boehringer light units (BLU); mean over the file's lines of this peptide [1]: 500 | normalised SPOT signal, Boehringer light units (BLU); mean over the file's lines of this peptide [2]: 57.7

SGGRLRRPVNVSLD [P22460 181-194]
normalised SPOT signal, Boehringer light units (BLU); mean over the file's lines of this peptide [1]: 54.6 | normalised SPOT signal, Boehringer light units (BLU); mean over the file's lines of this peptide [2]: 56.9

SGGRPLRPPHPVAK [O76081 141-155]
normalised SPOT signal, Boehringer light units (BLU); mean over the file's lines of this peptide [1]: 6230 | normalised SPOT signal, Boehringer light units (BLU); mean over the file's lines of this peptide [2]: 718

SGGRPIKPPKKDLE [Q15059 280-294]
normalised SPOT signal, Boehringer light units (BLU); mean over the file's lines of this peptide [1]: 66 | normalised SPOT signal, Boehringer light units (BLU); mean over the file's lines of this peptide [2]: 48.5

SFLRLRRPWNWIAH [Q9H1Y5 130-143]
normalised SPOT signal, Boehringer light units (BLU); mean over the file's lines of this peptide [1]: 351 | normalised SPOT signal, Boehringer light units (BLU); mean over the file's lines of this peptide [2]: 120

SEPHIKRPMNAFMV [Q9BXQ5 597-610]
normalised SPOT signal, Boehringer light units (BLU); mean over the file's lines of this peptide [1]: 63.7 | normalised SPOT signal, Boehringer light units (BLU); mean over the file's lines of this peptide [2]: 32

SAGLPGKPPAIQAS [O95428 427-441]
normalised SPOT signal, Boehringer light units (BLU); mean over the file's lines of this peptide [1]: 50.3 | normalised SPOT signal, Boehringer light units (BLU); mean over the file's lines of this peptide [2]: 42.4

SGGRLRRPAHVPLD [Q9BYS4 74-87]
normalised SPOT signal, Boehringer light units (BLU); mean over the file's lines of this peptide [1]: 24.7 | normalised SPOT signal, Boehringer light units (BLU); mean over the file's lines of this peptide [2]: 20.8

SEDDFYRPSREQPL [Q9Y4G2 445-458]
normalised SPOT signal, Boehringer light units (BLU); mean over the file's lines of this peptide [1]: 92.5 | normalised SPOT signal, Boehringer light units (BLU); mean over the file's lines of this peptide [2]: 142

SGGIPKRPSSPVIS [Q96T17 281-294]
normalised SPOT signal, Boehringer light units (BLU); mean over the file's lines of this peptide [1]: 1080 | normalised SPOT signal, Boehringer light units (BLU); mean over the file's lines of this peptide [2]: 46.1

SGEQLPRPTRGRMR [Q9H254 103-116]
normalised SPOT signal, Boehringer light units (BLU); mean over the file's lines of this peptide [1]: 210 | normalised SPOT signal, Boehringer light units (BLU); mean over the file's lines of this peptide [2]: 873

SGAPPTKPPTTPVG [P54259 267-281]
normalised SPOT signal, Boehringer light units (BLU); mean over the file's lines of this peptide [1]: 65.4 | normalised SPOT signal, Boehringer light units (BLU); mean over the file's lines of this peptide [2]: 41.3

SFSHLKRPQQGAGN [O43190 163-176]
normalised SPOT signal, Boehringer light units (BLU); mean over the file's lines of this peptide [1]: 32.4 | normalised SPOT signal, Boehringer light units (BLU); mean over the file's lines of this peptide [2]: 26.3

SGGKIRRPANVPID [Q16322 147-160]
normalised SPOT signal, Boehringer light units (BLU); mean over the file's lines of this peptide [1]: 94.6 | normalised SPOT signal, Boehringer light units (BLU); mean over the file's lines of this peptide [2]: 0

SGGRIRRPVNVPID [P22001 113-126]
normalised SPOT signal, Boehringer light units (BLU); mean over the file's lines of this peptide [1]: 104 | normalised SPOT signal, Boehringer light units (BLU); mean over the file's lines of this peptide [2]: 29

SGGRLRRPVNVPLD [Q09470 98-111]
normalised SPOT signal, Boehringer light units (BLU); mean over the file's lines of this peptide [1]: 44 | normalised SPOT signal, Boehringer light units (BLU); mean over the file's lines of this peptide [2]: 33.6

SFLTLTRPDRALVR [Q9H6A9 133-146]
normalised SPOT signal, Boehringer light units (BLU); mean over the file's lines of this peptide [1]: 211 | normalised SPOT signal, Boehringer light units (BLU); mean over the file's lines of this peptide [2]: 894

SFQSPTRPPLASPT [Q9UGJ0 207-221]
normalised SPOT signal, Boehringer light units (BLU); mean over the file's lines of this peptide [1]: 161 | normalised SPOT signal, Boehringer light units (BLU); mean over the file's lines of this peptide [2]: 27.7

SESRIRRPMNAFMV [Q9BT81 41-54]
normalised SPOT signal, Boehringer light units (BLU); mean over the file's lines of this peptide [1]: 32.9 | normalised SPOT signal, Boehringer light units (BLU); mean over the file's lines of this peptide [2]: 0

SGKGLRRPHSTVEE [Q9P2L5 16-29]
normalised SPOT signal, Boehringer light units (BLU); mean over the file's lines of this peptide [1]: 17.2 | normalised SPOT signal, Boehringer light units (BLU); mean over the file's lines of this peptide [2]: 44.8

SFAYPNRPDRPVLK [Q03519 474-487]
normalised SPOT signal, Boehringer light units (BLU); mean over the file's lines of this peptide [1]: 245 | normalised SPOT signal, Boehringer light units (BLU); mean over the file's lines of this peptide [2]: 1280

SGAEIKRPGASVKV [O95978 26-39]
normalised SPOT signal, Boehringer light units (BLU); mean over the file's lines of this peptide [1]: 32.7 | normalised SPOT signal, Boehringer light units (BLU); mean over the file's lines of this peptide [2]: 34.4

SEGSLTRPKKAIPP [O14810 90-103]
normalised SPOT signal, Boehringer light units (BLU); mean over the file's lines of this peptide [1]: 68.4 | normalised SPOT signal, Boehringer light units (BLU); mean over the file's lines of this peptide [2]: 0

SGDQLKRPFGAFRS [Q9Y6H5 853-866]
normalised SPOT signal, Boehringer light units (BLU); mean over the file's lines of this peptide [1]: 75.5 | normalised SPOT signal, Boehringer light units (BLU); mean over the file's lines of this peptide [2]: 20.6

SGERLPRPDKGKMR [Q08043 87-100]
normalised SPOT signal, Boehringer light units (BLU); mean over the file's lines of this peptide [1]: 47.7 | normalised SPOT signal, Boehringer light units (BLU); mean over the file's lines of this peptide [2]: 91.2

SFTALRRPSLRREA [O76050 230-243]
normalised SPOT signal, Boehringer light units (BLU); mean over the file's lines of this peptide [1]: 27.6 | normalised SPOT signal, Boehringer light units (BLU); mean over the file's lines of this peptide [2]: 65.1
